# B1: human creatine kinase B subunit (wild-type) (enzyme)
# chain: not shown
# notes: One subunit (monomer) that associates into dimers; Tested in crude detergent extracts of transfected COS cells; also called B creatine kinase; B CK
# B2: human creatine kinase M subunit (wild-type) (enzyme)
# chain: not shown
# notes: One subunit (monomer) that associates into dimers; Tested in crude detergent extracts of transfected COS cells; also called M creatine kinase; M CK
# Experiments:
# [1] = target: the molecule itself; assay: nondenaturing electrophoresis of extracts of COS cells cotransfected with M, B and lys⁻M constructs
# [2] = target: B2; assay: nondenaturing electrophoresis of extracts of COS cells cotransfected with all three constructs
# [3] = target: the molecule itself; assay: nondenaturing electrophoresis of extracts of COS cells cotransfected with M, mutant M and B constructs (dimer formation)
binding result [2],Binder,binding result [1],binding result [3]
binds,B1,binds,–
–,B2,–,binds

# — patent EP0571085A1 (BAYLOR COLLEGE OF MEDICINE, dated 1993)
